Earlier results, collected in article PMC12799613.

Assays:
TRPC5 (Homo sapiens) = TRPC5 (Homo sapiens) (UniProt Q9UL62)
[1] = target: TRPM3 peptide (Mus musculus) (UniProt J9SQF3)
[2] = target: GIRK2 (Kir3.2), first Gβγ binding (Mus musculus) (UniProt P48542)
[3] = target: GIRK2 (Kir3.2), fourth Gβγ binding (Mus musculus) (UniProt P48542)
Sequence of GIRK2 (Kir3.2), fourth Gβγ binding (Mus musculus) (P48542 whole entry): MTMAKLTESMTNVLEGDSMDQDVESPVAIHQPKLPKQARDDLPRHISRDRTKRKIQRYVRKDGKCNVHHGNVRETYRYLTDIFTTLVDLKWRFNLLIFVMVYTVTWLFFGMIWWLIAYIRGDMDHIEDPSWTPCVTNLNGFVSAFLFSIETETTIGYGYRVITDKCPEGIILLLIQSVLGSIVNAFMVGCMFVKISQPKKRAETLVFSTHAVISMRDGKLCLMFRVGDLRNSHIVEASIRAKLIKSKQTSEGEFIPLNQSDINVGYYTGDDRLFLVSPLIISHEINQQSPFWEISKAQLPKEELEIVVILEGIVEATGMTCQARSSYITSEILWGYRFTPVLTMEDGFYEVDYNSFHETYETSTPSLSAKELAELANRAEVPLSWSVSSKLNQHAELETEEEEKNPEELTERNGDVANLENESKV

Sequence of Gβ1γ2 (P62873 2-340): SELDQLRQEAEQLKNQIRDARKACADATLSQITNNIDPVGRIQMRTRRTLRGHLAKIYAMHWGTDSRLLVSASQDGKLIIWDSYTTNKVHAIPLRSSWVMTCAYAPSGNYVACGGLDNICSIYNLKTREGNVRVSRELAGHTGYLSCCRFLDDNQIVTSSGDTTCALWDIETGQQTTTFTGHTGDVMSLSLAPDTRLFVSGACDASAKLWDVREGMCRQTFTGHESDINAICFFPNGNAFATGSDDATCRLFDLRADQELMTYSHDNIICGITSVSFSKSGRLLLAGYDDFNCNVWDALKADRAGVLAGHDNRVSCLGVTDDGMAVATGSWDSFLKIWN
Sequence of Gβ1γ2 (P59768 2-68, further chain): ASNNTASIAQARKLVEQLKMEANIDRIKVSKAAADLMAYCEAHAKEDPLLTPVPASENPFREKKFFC
Sequence of TRPC5 (Homo sapiens) (Q9UL62 whole entry): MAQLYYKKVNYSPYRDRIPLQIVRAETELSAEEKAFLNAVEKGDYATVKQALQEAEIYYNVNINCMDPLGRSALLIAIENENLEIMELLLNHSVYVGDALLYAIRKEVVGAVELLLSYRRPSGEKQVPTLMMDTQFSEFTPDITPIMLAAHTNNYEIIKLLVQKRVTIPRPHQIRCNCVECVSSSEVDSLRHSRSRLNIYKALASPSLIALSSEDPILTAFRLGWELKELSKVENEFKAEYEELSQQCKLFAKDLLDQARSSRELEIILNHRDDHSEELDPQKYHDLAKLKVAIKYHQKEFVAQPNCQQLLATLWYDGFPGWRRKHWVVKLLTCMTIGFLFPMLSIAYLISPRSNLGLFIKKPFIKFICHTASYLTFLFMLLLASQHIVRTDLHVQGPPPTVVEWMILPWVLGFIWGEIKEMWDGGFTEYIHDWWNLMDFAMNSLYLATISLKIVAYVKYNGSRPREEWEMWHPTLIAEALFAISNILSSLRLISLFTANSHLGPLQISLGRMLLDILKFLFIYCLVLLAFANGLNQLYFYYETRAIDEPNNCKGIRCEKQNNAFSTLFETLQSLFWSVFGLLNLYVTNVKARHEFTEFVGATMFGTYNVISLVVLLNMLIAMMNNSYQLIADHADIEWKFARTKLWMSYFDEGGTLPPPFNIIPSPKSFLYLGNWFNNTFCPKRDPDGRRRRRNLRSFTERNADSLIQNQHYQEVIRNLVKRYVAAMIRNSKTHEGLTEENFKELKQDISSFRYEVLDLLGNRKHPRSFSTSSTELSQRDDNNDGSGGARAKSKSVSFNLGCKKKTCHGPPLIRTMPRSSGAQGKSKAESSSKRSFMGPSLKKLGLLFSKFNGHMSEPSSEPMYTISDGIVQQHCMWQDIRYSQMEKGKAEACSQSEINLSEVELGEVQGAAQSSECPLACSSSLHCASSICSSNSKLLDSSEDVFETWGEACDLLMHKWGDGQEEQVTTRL
Sequence of TRPM3 peptide (Mus musculus) (J9SQF3 whole entry): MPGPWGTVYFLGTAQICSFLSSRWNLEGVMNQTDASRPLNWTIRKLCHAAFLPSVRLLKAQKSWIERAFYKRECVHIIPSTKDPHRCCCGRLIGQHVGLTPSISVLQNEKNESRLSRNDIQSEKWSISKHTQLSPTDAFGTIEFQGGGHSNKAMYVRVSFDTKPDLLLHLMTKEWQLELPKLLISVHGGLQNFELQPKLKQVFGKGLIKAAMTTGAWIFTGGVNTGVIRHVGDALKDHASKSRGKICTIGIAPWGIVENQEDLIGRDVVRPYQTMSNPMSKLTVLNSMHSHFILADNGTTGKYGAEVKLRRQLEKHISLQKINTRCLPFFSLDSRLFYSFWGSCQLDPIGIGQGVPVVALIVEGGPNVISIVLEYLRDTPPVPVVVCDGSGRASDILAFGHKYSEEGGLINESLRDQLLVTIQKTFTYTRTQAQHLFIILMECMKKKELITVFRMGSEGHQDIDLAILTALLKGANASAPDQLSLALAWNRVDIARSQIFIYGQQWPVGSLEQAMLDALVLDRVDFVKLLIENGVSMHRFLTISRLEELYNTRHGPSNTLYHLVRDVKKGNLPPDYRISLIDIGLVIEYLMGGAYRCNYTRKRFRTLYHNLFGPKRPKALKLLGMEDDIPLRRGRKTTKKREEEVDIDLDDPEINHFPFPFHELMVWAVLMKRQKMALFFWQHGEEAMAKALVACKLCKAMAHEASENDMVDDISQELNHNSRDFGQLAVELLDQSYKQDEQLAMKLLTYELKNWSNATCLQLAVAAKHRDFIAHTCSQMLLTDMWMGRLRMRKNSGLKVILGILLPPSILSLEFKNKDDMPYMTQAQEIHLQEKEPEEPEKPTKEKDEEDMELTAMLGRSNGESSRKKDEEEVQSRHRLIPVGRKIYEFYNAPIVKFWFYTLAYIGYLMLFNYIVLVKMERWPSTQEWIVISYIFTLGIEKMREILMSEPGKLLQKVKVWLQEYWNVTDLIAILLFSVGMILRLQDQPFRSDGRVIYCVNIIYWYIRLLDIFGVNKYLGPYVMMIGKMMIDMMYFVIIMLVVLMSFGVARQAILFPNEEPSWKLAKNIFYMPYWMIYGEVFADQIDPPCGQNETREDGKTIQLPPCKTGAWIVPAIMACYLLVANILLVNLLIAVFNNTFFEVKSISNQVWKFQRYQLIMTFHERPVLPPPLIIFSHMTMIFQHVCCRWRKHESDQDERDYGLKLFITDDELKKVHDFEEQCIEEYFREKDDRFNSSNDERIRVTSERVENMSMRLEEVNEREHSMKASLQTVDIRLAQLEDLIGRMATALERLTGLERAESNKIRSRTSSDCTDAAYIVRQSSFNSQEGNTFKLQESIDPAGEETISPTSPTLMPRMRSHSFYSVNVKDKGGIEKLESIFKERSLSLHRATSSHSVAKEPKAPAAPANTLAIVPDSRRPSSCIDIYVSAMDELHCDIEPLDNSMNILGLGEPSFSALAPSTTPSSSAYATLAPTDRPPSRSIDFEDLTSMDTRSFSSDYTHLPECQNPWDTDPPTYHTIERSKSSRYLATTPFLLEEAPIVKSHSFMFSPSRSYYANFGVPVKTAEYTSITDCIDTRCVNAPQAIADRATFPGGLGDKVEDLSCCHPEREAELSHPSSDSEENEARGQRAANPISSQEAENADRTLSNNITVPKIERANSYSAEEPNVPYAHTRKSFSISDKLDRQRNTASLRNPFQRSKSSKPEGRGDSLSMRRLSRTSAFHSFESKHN
Sequence of GIRK2 (Kir3.2), first Gβγ binding (Mus musculus) (P48542 whole entry): as the sequence (P48542 whole entry) above
Sequence of Gαi3 (P08754 2-354): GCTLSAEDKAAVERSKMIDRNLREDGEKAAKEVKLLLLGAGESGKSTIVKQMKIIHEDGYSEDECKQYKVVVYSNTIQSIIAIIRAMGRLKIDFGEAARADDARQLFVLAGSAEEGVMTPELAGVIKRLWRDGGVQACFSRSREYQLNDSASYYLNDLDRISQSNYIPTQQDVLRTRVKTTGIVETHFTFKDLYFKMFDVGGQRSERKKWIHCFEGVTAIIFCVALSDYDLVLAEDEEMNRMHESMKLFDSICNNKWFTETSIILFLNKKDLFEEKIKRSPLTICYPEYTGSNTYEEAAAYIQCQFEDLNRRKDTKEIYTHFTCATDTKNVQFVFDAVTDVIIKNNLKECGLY

Which Kd (TRPC5 (Homo sapiens)) does the source give for Gαi3 (from UniProt P08754) here?
The Kd was 0.91 µM.

Which Kd [1] does the source give for Gβ1γ2 (from UniProt P62873) here?
The Kd was 56 µM.

And the Kd [2]?
Its Kd is 1900 µM.

What about the Kd [3] of the same substance?
The Kd was 50 µM.
